Bridges are numbered along the chain shown (N, C = ends). Where no end group is shown, it is not given here. [ ]: non-standard residue; d: D form. The star is where a group is joined. DOTA = O=C(O)CN1CCN(CC(=O)O)CCN(CC(=O)*)CCN(CC(=O)O)CC1
B1: D-Ser-D-Ser-D-Ser-D-Ser-D-Ser-L-Lys-D-Ser-D-Ser-cyclo[L-Cys-L-Phe-D-Trp-L-Lys-L-Thr-L-Cys]-L-Thr-NH2 (peptide)
peptide: [dS][dS][dS][dS][dS]K[dS][dS]CF[dW]KTCT-NH2
modifications: disulfide 9-14; N-terminus assumed
SMILES: C[C@@H](O)[C@H](NC(=O)[C@@H]1CSSC[C@H](NC(=O)[C@@H](CO)NC(=O)[C@@H](CO)NC(=O)[C@H](CCCCN)NC(=O)[C@@H](CO)NC(=O)[C@@H](CO)NC(=O)[C@@H](CO)NC(=O)[C@@H](CO)NC(=O)[C@H](N)CO)C(=O)N[C@@H](Cc2ccccc2)C(=O)N[C@H](Cc2c[nH]c3ccccc23)C(=O)N[C@@H](CCCCN)C(=O)N[C@@H]([C@@H](C)O)C(=O)N1)C(N)=O
B2: D-Ser-D-Ser-D-Ser-D-Ser-D-Ser-D-Ser-D-Ser-D-Ser-D-Ser-D-Ser-D-Ser-D-Ser-D-Ser-D-Ser-D-Ser-L-Lys-D-Tyr-D-Tyr-cyclo[L-Cys-L-Phe-D-Trp-L-Lys-L-Thr-L-Cys]-L-Thr-NH2 (peptide)
peptide: [dS][dS][dS][dS][dS][dS][dS][dS][dS][dS][dS][dS][dS][dS][dS]K[dY][dY]CF[dW]KTCT-NH2
modifications: disulfide 19-24; N-terminus assumed
SMILES: C[C@@H](O)[C@H](NC(=O)[C@@H]1CSSC[C@H](NC(=O)[C@@H](Cc2ccc(O)cc2)NC(=O)[C@@H](Cc2ccc(O)cc2)NC(=O)[C@H](CCCCN)NC(=O)[C@@H](CO)NC(=O)[C@@H](CO)NC(=O)[C@@H](CO)NC(=O)[C@@H](CO)NC(=O)[C@@H](CO)NC(=O)[C@@H](CO)NC(=O)[C@@H](CO)NC(=O)[C@@H](CO)NC(=O)[C@@H](CO)NC(=O)[C@@H](CO)NC(=O)[C@@H](CO)NC(=O)[C@@H](CO)NC(=O)[C@@H](CO)NC(=O)[C@@H](CO)NC(=O)[C@H](N)CO)C(=O)N[C@@H](Cc2ccccc2)C(=O)N[C@H](Cc2c[nH]c3ccccc23)C(=O)N[C@@H](CCCCN)C(=O)N[C@@H]([C@@H](C)O)C(=O)N1)C(N)=O
B3: DOTA-D-Ser-D-Ser-D-Ser-D-Ser-D-Ser-D-Ser-D-Ser-D-Ser-D-Ser-D-Ser-L-Lys-D-Tyr-D-Tyr-cyclo[L-Cys-L-Phe-D-Trp-L-Lys-L-Thr-L-Cys]-L-Thr-NH2 (peptide)
peptide: {DOTA}-[dS][dS][dS][dS][dS][dS][dS][dS][dS][dS]K[dY][dY]CF[dW]KTCT-NH2
modifications: disulfide 14-19
SMILES: C[C@@H](O)[C@H](NC(=O)[C@@H]1CSSC[C@H](NC(=O)[C@@H](Cc2ccc(O)cc2)NC(=O)[C@@H](Cc2ccc(O)cc2)NC(=O)[C@H](CCCCN)NC(=O)[C@@H](CO)NC(=O)[C@@H](CO)NC(=O)[C@@H](CO)NC(=O)[C@@H](CO)NC(=O)[C@@H](CO)NC(=O)[C@@H](CO)NC(=O)[C@@H](CO)NC(=O)[C@@H](CO)NC(=O)[C@@H](CO)NC(=O)[C@@H](CO)NC(=O)CN2CCN(CC(=O)O)CCN(CC(=O)O)CCN(CC(=O)O)CC2)C(=O)N[C@@H](Cc2ccccc2)C(=O)N[C@H](Cc2c[nH]c3ccccc23)C(=O)N[C@@H](CCCCN)C(=O)N[C@@H]([C@@H](C)O)C(=O)N1)C(N)=O
B4: Acetyl-D-Ser-D-Ser-D-Ser-D-Ser-D-Ser-D-Ser-D-Ser-D-Ser-D-Ser-D-Ser-L-Lys-D-Tyr-D-Tyr-cyclo[L-Cys-L-Phe-D-Trp-L-Lys-L-Thr-L-Cys]-L-Thr-NH2 (peptide)
peptide: Ac-[dS][dS][dS][dS][dS][dS][dS][dS][dS][dS]K[dY][dY]CF[dW]KTCT-NH2
modifications: disulfide 14-19
SMILES: CC(=O)N[C@H](CO)C(=O)N[C@H](CO)C(=O)N[C@H](CO)C(=O)N[C@H](CO)C(=O)N[C@H](CO)C(=O)N[C@H](CO)C(=O)N[C@H](CO)C(=O)N[C@H](CO)C(=O)N[C@H](CO)C(=O)N[C@H](CO)C(=O)N[C@@H](CCCCN)C(=O)N[C@H](Cc1ccc(O)cc1)C(=O)N[C@H](Cc1ccc(O)cc1)C(=O)N[C@H]1CSSC[C@@H](C(=O)N[C@H](C(N)=O)[C@@H](C)O)NC(=O)[C@H]([C@@H](C)O)NC(=O)[C@H](CCCCN)NC(=O)[C@@H](Cc2c[nH]c3ccccc23)NC(=O)[C@H](Cc2ccccc2)NC1=O

molecular target: somatostatin subtype 2 rat receptor (rat, UniProt P30680 1-369); experiment: cell-based or functional assay
Sequence (P30680 whole entry): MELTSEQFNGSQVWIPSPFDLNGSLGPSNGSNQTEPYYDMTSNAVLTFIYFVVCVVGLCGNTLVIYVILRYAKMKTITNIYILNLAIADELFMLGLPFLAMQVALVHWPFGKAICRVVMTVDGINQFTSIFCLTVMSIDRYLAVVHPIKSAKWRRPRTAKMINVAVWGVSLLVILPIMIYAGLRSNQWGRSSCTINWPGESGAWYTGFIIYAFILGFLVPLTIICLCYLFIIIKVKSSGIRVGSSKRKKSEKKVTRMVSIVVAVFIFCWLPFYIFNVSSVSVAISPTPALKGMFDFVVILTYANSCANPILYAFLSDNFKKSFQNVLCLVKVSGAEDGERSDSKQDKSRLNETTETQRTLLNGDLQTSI

| Binder | IC50 (nM), inhibition of GH release from primary cultures of rat pituitary cells |
| --- | --- |
| B1 | 3.29 nM |
| B2 | 0.32 nM |
| B3 | 0.71 nM |
| B4 | 0.57 nM |
